# From US20120065365A1, “Stable Radiopharmaceutical Compositions and Methods for Their Preparation” (BRACCO IMAGING S.P.A., priority 2003, published 2012)
# Read-outs that look alike come from different tables or passages of the source.
# How the values were obtained:
# [1] = type: physicochemical; settings: 50 mCi/2 mL, Radiolysis Protecting Solution, room temperature
# Experimental: ^177Lu-A and ^177Lu-B were prepared at a 50 mCi level as described in EXAMPLE 4. Immediately after cooling the reaction mixtures to room temperature, 1 mL of a Radiolysis Protecting Solution was added, containing 10 mg/mL gentisic Acid; 50 mg/mL ascorbic acid sodium salt, 2 mg/mL HSA, (2 mg/mL or 3.52 mg/mL) L-cysteine, 0.9% (v/v) benzyl alcohol and 1 mg/mL of Na2EDTA.2H2O in 0.05 M, pH 5.3 citrate buffer. The reaction vials were stored in the autosampler chamber and the stability was analysed by RP-HPLC over time using HPLC Methods 3 [^177Lu-A] or 4 [^177Lu-B]. Similar results were obtained for ^177Lu-B.
# [2] = type: physicochemical; settings: 50 mCi/2 mL, Radiolysis Protecting Solution with 0 mg/mL L-cysteine, room temperature
# Experimental: ^177Lu-A was prepared at a 50 mCi level as described in EXAMPLE 4. Immediately after cooling the reaction mixture to room temperature, 1 mL of a Radiolysis Protecting Solution was added, that contained 10 mg/mL gentisic acid; 50 mg/mL ascorbic acid sodium salt; 2 mg/mL HSA; 0.9% (v:v) benzyl alcohol and 1 mg/mL of Na2EDTA.2H2O in 0.05 M, pH 3.3 citrate buffer. The reaction vial was stored in an autosampler chamber and the stability was analysed by RP-HPLC over time.
# [3] = type: physicochemical; settings: 50 mCi/2 mL in Radiolysis Protecting Solution containing L-methionine, room temperature
# Experimental: The injection volume was 20 μL.
# A Radiolysis Protecting Solution was prepared to contain 10 mg/mL gentisic acid; 50 mg/mL ascorbic acid sodium salt; 2 mg/mL HSA; 2.98 mg/mL L-methionine, 0.9% (v:v) benzyl alcohol and 1 mg/mL of Na2EDTA.2H2O in 0.05 M, pH 5.3 citrate buffer. […] The mixture was incubated at 100° C. for 5 min, and then cooled to room temperature with a water bath. A 1-mL aliquot of the Radiolysis Protecting Solution was immediately added. The reaction vial was stored in an autosampler chamber and the stability was analyzed by Reversed Phase HPLC over time, using HPLC Methods 3 and 4. The results obtained for ^177Lu-B are shown in the chromatograms in FIG. 9.
# [4] = Stability in Radiolysis Protecting Solution containing methionine (FIG. 4 and similar study); type: physicochemical; settings: methionine in the radiolysis protecting solution increased to 3 mg/mL
# Experimental: Formulations stabilized by such cocktails maintained excellent radiochemical purity (RCP) values (>95% RCP) for as long as 5 days at room temperature. This stabilizing cocktail is added immediately after formation of the radioactive complex, so would be the second vial of a two-vial kit.
# [5] = type: physicochemical; settings: 55 mCi/2 ml, 1 mL radiolysis protecting solution (L-cysteine) added after complex formation, room temperature
# [6] = type: physicochemical; settings: Radiolysis Protecting Solution containing L-selenomethionine, room temperature
# Experimental: ^177Lu-A and ^177Lu-B were prepared at a 50 mCi level as described in EXAMPLE 4. Immediately after cooling the reaction mixtures to room temperature, 1 mL of a Radiolysis Protecting solution was added, containing 10 mg/mL gentisic acid; 50 mg/mL ascorbic acid sodium salt; 2 mg/mL HSA; 3.92 mg/mL L-selenomethionine, 0.9% (v:v) benzyl alcohol and 1 mg/mL of Na2EDTA.2H2O in 0.05 M, pH 5.3 citrate buffer. The reaction vials were stored in the autosampler chamber and the stability was analysed by RP-HPLC over time using HPLC Methods 3 [^177Lu-A] or 4 [^177Lu-B].
substance,measurement,setting,value
^177Lu-A: the ^177Lu complex of DOTA-Gly-ACA-Gln-Trp-Ala-Val-Gly-His-Leu-Met-NH2,% RCP 0-d,[1]; L-cysteine 1.0 mg/mL,100%
same,% RCP 1-d,[1]; L-cysteine 1.0 mg/mL,99.9%
same,% RCP 2-d,[1]; L-cysteine 1.0 mg/mL,98.4%
same,% RCP 3-d,[1]; L-cysteine 1.0 mg/mL,97.5%
same,% RCP 5-d,[1]; L-cysteine 1.0 mg/mL,96.9%
same,% RCP 0-d,[1]; L-cysteine 1.75 mg/mL,100%
same,% RCP 1-d,[1]; L-cysteine 1.75 mg/mL,99.9%
same,% RCP 2-d,[1]; L-cysteine 1.75 mg/mL,98.9%
same,% RCP 3-d,[1]; L-cysteine 1.75 mg/mL,95.8%
same,% RCP 5-d,[1]; L-cysteine 1.75 mg/mL,93.3%
same,% RCP 0-d (first value of cell),[2]; 0 d,100/100%
same,% RCP 0-d (second value of cell),[2]; 0 d,100/100%
same,% RCP 1-d (first value of cell),[2]; 1 d,94.9%
same,% RCP 1-d (second value of cell),[2]; 1 d,99.2%
same,% RCP 2-d (first value of cell),[2]; 2 d,93.6%
same,% RCP 2-d (second value of cell),[2]; 2 d,97.3%
same,% RCP 3-d (second value of cell),[2]; 3 d,ND/95.1%
same,% RCP 5-d (first value of cell),[2]; 5 d,90.4%
same,% RCP 5-d (second value of cell),[2]; 5 d,92.9%
same,% RCP 0-d,[3]; 0 d,100%
same,% RCP 1-d,[3]; 1 d,100%
same,% RCP 2-d,[3]; 2 d,100%
same,% RCP 5-d,[3]; 5 d,100%
same,RCP (effective radiostabilization),[4],> 95%
same,RCP for 5 days,[5],> 95%
same,% RCP 0-d,"[6]; 50 mCi level, 0 d",97.6%
same,% RCP 1-d,[6]; 1 d,98.2%
same,% RCP 2-d,[6]; 2 d,97.5%
same,% RCP 3-d,[6]; 3 d,97.8%
same,% RCP 5-d,[6]; 5 d,99.4%
